Experimental data published in publication doi:10.1101/2025.05.20.655083, “Importin α/β1 dependent nuclear import of Black Sea Bass Polyomavirus Large Tumor Antigen is mediated by a classical NLS located downstream of the SF3 helicase domain” (bioRxiv, 2025).
Where no end group is shown, it is not given here. The star is where a group is joined. FITC = O=C1OC2(c3ccc(O)cc3Oc3cc(O)ccc32)c2ccc(NC(=S)*)cc21; Ahx = NCCCCCC(=O)O

Key:
Test in all cases: native gel or EMSA; 1.5% agarose gel in TB buffer (0.45 mM tris, 0.45 mM boric acid, pH ~8.5), 2 hours at 75 V; recombinant IMPs 20 μM, FITC peptides 10 μM; peptides seen with a UV filter, proteins by Coomassie staining
Settings in all cases: both partners purified
human importin β1 = target: T1, human importin β1 (human, UniProt Q14974 1-876)
T1 construct: human importin β1; In pMCSG21 with His tag and TEV site; no cleavage step is described in the purification; also called hIMPβ1; IMPβ1; source: E. coli BL21(DE3)pLysS, purified (HisTrap, Superdex 200 SEC)
T1 sequence (Q14974 whole entry): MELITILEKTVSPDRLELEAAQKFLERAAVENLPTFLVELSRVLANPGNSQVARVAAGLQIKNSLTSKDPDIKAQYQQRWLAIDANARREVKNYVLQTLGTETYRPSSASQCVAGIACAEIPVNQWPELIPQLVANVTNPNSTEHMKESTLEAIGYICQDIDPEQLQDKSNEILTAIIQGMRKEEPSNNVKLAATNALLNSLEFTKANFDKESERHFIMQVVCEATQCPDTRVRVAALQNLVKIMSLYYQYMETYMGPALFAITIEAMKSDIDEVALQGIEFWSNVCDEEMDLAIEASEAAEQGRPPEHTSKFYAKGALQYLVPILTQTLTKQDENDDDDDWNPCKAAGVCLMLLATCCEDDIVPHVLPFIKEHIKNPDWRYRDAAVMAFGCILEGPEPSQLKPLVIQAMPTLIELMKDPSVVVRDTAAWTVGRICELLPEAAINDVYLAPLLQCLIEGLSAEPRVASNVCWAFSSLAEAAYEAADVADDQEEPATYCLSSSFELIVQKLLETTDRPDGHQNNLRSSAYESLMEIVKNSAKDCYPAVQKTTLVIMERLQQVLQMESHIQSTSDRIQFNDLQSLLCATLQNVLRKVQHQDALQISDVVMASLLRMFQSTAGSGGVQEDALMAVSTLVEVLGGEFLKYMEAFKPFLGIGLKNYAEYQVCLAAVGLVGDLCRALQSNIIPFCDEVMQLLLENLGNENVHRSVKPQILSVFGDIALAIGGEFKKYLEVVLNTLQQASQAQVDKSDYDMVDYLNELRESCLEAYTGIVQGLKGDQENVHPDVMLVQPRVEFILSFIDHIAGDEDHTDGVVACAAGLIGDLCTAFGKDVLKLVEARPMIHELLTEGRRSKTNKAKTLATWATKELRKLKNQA

human importin β2 = target: T2, human importin β2 (human, UniProt Q92973 1-898)
T2 construct: human importin β2; In pET30a with His tag and TEV site; no cleavage step is described in the purification; also called hIMPβ2; IMPβ2; source: E. coli BL21(DE3)pLysS, purified (HisTrap, Superdex 200 SEC)
T2 sequence (looked up): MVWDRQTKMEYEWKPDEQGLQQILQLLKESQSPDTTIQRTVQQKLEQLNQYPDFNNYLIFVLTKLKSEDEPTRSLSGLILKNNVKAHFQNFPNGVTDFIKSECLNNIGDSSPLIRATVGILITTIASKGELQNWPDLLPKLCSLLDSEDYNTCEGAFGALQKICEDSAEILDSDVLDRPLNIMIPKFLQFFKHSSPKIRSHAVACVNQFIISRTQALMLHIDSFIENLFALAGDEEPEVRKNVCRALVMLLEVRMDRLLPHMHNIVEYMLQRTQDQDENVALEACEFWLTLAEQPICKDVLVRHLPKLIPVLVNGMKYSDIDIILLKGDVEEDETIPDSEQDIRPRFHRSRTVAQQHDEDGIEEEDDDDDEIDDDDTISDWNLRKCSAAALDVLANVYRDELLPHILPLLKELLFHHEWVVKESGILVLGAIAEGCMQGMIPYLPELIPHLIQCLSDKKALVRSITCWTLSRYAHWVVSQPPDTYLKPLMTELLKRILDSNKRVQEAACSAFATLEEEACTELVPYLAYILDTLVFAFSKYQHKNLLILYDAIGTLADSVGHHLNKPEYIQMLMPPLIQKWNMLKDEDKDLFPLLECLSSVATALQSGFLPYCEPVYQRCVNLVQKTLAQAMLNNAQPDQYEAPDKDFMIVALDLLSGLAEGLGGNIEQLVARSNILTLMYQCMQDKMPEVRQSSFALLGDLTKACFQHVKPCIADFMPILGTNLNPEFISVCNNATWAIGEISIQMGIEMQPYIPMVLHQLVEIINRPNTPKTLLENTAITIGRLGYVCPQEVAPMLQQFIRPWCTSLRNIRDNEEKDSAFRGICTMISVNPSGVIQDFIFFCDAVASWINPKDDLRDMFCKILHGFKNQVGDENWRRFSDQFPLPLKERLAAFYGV

human importin β3 = target: T3, human importin β3 (human, UniProt O00410 1-1097)
T3 construct: human importin β3; In pET30a with His tag and TEV site; no cleavage step is described in the purification; also called hIMPβ3; IMPβ3; source: E. coli BL21(DE3)pLysS, purified (HisTrap, Superdex 200 SEC)
T3 sequence (looked up): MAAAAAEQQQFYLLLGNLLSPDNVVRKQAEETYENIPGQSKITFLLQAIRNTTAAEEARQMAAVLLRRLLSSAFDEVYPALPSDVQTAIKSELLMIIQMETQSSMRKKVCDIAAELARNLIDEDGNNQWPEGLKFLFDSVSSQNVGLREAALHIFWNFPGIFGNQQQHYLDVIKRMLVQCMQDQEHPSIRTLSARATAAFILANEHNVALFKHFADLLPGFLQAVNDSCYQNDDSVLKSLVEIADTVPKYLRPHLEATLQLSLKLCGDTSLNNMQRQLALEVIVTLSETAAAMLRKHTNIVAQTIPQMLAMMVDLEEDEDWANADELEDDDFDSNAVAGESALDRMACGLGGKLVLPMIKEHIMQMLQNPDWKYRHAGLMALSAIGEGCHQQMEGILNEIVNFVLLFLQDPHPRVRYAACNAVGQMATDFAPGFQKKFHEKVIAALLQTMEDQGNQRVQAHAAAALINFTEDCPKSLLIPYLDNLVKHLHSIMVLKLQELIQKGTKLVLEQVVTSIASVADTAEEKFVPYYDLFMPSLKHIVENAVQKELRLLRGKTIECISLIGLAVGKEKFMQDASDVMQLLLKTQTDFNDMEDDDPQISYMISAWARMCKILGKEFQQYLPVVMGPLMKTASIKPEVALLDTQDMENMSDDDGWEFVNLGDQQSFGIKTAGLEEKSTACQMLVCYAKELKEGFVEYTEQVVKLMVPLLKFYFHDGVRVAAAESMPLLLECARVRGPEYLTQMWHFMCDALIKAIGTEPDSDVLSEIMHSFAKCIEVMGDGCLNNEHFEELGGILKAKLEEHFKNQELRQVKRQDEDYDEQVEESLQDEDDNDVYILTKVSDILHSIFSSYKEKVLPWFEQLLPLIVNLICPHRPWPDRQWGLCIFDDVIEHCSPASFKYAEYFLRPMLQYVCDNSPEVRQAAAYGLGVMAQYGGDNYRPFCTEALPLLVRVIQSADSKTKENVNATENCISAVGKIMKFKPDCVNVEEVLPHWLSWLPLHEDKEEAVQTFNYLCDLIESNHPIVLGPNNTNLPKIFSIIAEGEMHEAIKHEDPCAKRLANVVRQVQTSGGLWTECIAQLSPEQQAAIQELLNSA

Measured: binding result

B1: BSB PyV-LTA;NLS peptide (Black Sea Bass polyomavirus large tumor antigen residues 660-683) (peptide)
peptide: {FITC-Ahx}-IAEYKRRHNIGSDGLPNKRRRCLF
notes: also called BSB PyV-LTA 660-683; BSBPyV LTA FITC-NLS peptide
binds: all assays above
